The values that follow are results of earlier work, collected in publication PMC3367028.

The series addresses CD74 (Homo sapiens) (UniProt P04233). Description: SPR.
UniProt P04233, sequence (P04233 73-296): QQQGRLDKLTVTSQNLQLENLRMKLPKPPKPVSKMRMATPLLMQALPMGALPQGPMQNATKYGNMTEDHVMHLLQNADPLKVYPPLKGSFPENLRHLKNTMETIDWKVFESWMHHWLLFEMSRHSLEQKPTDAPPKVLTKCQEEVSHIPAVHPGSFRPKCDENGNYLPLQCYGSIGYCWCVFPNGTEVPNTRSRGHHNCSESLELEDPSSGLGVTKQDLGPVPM

Consider D-DT (from UniProt P30046), for which the Kd is 5.42 nM.
